Source: FireProtDB (doi:10.1002/pro.5560010205)

Details: Mus musculus; pH 4; 23 °C; GdnHCl; Fluorescence; sodium phosphate 100 mM; reversible: yes; whole UniProt chain shown

B1: Beta-nerve growth factor wild type, P01139 (protein)
chain: MSMLFYTLITAFLIGVQAEPYTDSNVPEGDSVPEAHWTKLQHSLDTALRRARSAPTAPIAARVTGQTRNITVDPRLFKKRRLHSPRVLFSTQPPPTSSDTLDLDFQAHGTIPFNRTHRSKRSSTHPVFHMGEFSVCDSVSVWVGDKTTATDIKGKEVTVLAEVNINNSVFRQYFFETKCRASNPVESGCRGIDSKHWNSYCTTTHTFVKALTTDEKQAAWRFIRIDTACVCVLSRKATRRG
unfolding free energy: 14.5 kcal/mol
